Substrate in data set [1]: NCCO
Nature of the data set: kinetic analysis of recombinant enzyme (substrate saturation). Type of data set: biochemical, P. falciparum. Conditions: Etn varied, ATP constant, pH 7.8. As for the experimental part: (§1) A continuous spectrophotometric 96-well plate assay was established for CK and EK activity based on an assay described. […] The reaction was initiated by addition of enzyme or substrate, as appropriate, and the rate of reaction was monitored by following the decrease in absorbance at 341 nm for 10 min at room temperature using a Thermo Multiska spectrophotometer. Experiments were carried out to ensure that coupling enzymes were not rate-limiting under any of the conditions used and control experiments lacking substrates and/or enzyme were carried out to correct for any background rate.
(§2) One substrate was held constant at the concentration specified above while the second substrate was varied. Any ATPase activity was controlled for and subtracted from the rates (PfEK only). Curves were plotted and Km and Vmax values estimated using Grafit 5 (Erithacus Software Ltd).

Substrate in data set [2]: Nc1ncnc2c1ncn2[C@@H]1O[C@H](COP(=O)(O)OP(=O)(O)OP(=O)(O)O)[C@@H](O)[C@H]1O
The description is as above. The note with it: ATP varied, pH 7.8. The format is biochemical, P. falciparum. As for the experimental part:
as §1, §2

Substrate in data set [3]: C[N+](C)(C)CCO
Description: purified protein, by the assay type. Conditions: other: PfCK, Cho varied, ATP constant; pH 7.8.

These results are taken from paper PMC5018819 (Scientific Reports, 2016).

The Km is the substrate concentration at which the rate is half of its maximum. Broadly, the Vmax is the top rate of the reaction or transport when substrate is in excess. Usually kcat stands for the number of substrate molecules converted per active site and unit of time at saturation. For orientation: kcat/Km means the turnover number divided by the Michaelis constant.

B1: PfCK (Plasmodium falciparum 3D7) (protein)
chain: MESKICDPIGLDKNKFRKVEEENEENSKIVENGQMTYNDDLEMFTTIQLNQEIDIRKNPFPLHMINQKNDIPLCAQEFSKLTDPLYIKKICLEKVHDWSRCNEDDVCVNQILSGLTNQLFEVSIKEDTAIEYRITRRHVLFRIYGKDVDALYNPLSEFEVYKTMSKYRIAPLLLNTFDGGRIEEWLYGDPLSIDDLKNKSILVGIANVLGKFHTLSRKRHLPEHWDKTPCVFKMMDRWRLAVSNYKNLDKVTLDINKYIQESHKFLKFIKIYTQIENIANDIVFCHNDLQENNIMNTNKCLRLIDFEYSGYNFLSADIANFFIETTIDYSYNAYPFFIINKKNYISYESRILFVTTYLSKYLDDSTAASDQDIIDQFLEAIEVQALGLHLIWAFWSIIRGYQTKSYNEFDFFLYAKERLKMYDEQKQYLMSKNIIKDYDD
notes: made in house
Take B1: in data set [1] (other: PfCK), the Km amounted to 3300 ± 300 µM, the Vmax came to 1.7 µmol/min/mg, the kcat stood at 1.5 s⁻¹ and the specificity constant (kcat/Km) worked out at 450 M⁻¹ s⁻¹. For the same protein, in data set [2] (other: PfCK), the Km turned out to be 130 ± 10 µM. Moreover, in data set [3], the Km worked out at 210 ± 30 µM, the maximal velocity (Vmax) was found to be 3.3 µmol/min/mg, the catalytic constant (kcat) came out at 2.9 s⁻¹ and the kcat/Km is 13800 M⁻¹ s⁻¹.

B2: PfEK (Plasmodium falciparum 3D7) (protein)
chain: EYQLREIDESEKEITQQRKKNSVTTKNFDNLSNSNSQITEMTNEQGVIPLREKDLTINVGDNRNLKVEEFMTNFISNVFENKNALFLYCKYVLLFYGKELLNENNVESLNFEIIKGGITNILVKVEDNIHQNKYLIRLYGPKTSEIINREREKLISNILCDKNISKKIYVFFPNGRIEEFKDGYALSREDIKNKDFQKEIAENLRILHDIQLDDTIYKKLQALQNIQGNRSSFLWSTLWKYFNTLKEERQKKYSFNPKAYILKLIDFDMLESIITEIQELCCKKNSPVVLCHCDLLSSNIIKTEGSSISFIDFEYSCPMERAYDIANHFNEYAGFNCEWDLTPNRSEEYHFIKHYLKTDDEQLINQLIDEIQPFYVCSHIVWGLWALLQGLHSVIDFDFINYGMTRLTAAFSVKFRSKL
Regarding B2, in data set [1] (other: PfEK), the Km came out at 80 ± 20 µM, the maximum rate (Vmax) is 0.03 µmol/min/mg, the kcat stood at 0.025 s⁻¹ and the specificity constant (kcat/Km) turned out to be 310 M⁻¹ s⁻¹. Further, the Km in data set [2] (other: PfEK) came out at 70 ± 30 µM.
